Biological target: GSK3β as used in the surface plasmon resonance (SPR) binding assays (Homo sapiens (Human), UniProt P49841 1-420)
Test: SPR, stoichiometry inferred from the response
Method: Surface plasmon resonance (SPR) was used to determine whether peptide 2 directly binds to GSK3β. GSK3β SPR binding assays were carried out with peptide 1, peptide 2, the GSK3β inhibitor L803-MTS, and as a negative control, a peptide from the N-type calcium channel, CACNA1B (FIG. 6A). […] To identify the peptide 2 sequences that mediate this interaction with GSK3β, we designed overlapping 15-mer peptides that covered peptide 2 and tested their binding to GSK3β SPR (FIG. 16B).

Chain of GSK3β as used in the surface plasmon resonance (SPR) binding assays (P49841 whole entry, form in doubt): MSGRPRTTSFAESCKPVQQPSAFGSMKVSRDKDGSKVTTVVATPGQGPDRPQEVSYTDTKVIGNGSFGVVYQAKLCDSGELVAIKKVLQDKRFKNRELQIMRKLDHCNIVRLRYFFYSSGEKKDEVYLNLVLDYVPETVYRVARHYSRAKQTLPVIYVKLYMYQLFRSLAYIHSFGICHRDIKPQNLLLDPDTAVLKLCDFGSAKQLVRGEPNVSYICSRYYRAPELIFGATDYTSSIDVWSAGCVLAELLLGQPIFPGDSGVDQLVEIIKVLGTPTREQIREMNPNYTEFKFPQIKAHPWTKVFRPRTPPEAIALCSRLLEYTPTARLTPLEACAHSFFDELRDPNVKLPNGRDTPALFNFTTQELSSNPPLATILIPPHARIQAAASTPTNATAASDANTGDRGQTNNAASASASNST

B1: Murine DISC1 peptide 3 (15-mer, mDISC1 amino acids 211 to 225) (peptide)
peptide: SFSFIQLSLGAAGER
notes: One of the overlapping 15-mer peptides that cover peptide 2; also called number 43; DISCtide2
peptide-protein ratio: 2 peptide:protein

B2: Mouse DISC1 peptide 2 (195-238aa) (peptide)
peptide: PADIASLPGFQDTFTSSFSFIQLSLGAAGERGEAEGCLPSREAE
notes: Synthetic peptide (Chi Scientific)
peptide-protein ratio: 2 peptide:protein
